# Test results as given in US20220153854A1 (Ablynx, published 2022).
# T1: cyno OX40L (cynomolgus monkey, UniProt G7NVH7 51-183)
# T1 construct: also called cyOX40L; cynomolgus monkey OX40L
# T1 sequence: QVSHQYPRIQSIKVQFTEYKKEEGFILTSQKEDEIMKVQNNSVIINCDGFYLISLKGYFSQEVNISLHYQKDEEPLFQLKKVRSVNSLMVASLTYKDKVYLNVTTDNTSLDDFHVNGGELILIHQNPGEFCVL
# T2: human OX40L (human, UniProt P23510 51-183)
# T2 construct: Protein in solution or immobilised (SPR, Gyrolab); construct not described; also called huOX40L; hOX40L
# T2 sequence (looked up): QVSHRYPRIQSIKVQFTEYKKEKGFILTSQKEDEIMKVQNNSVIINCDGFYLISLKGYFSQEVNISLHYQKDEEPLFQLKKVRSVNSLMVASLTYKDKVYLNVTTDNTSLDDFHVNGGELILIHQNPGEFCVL
# B1: ISVD construct F027100187 (other)
# chain: DVQLVESGGGVVQPGGSLRLSCAASRSIGRYDRMGWYRHRPGEPRELVATITGGSSINYGDSVKGRFTISIDNSKNTVYLQMNSLRPEDTALYYCNFNKYQISRDTWGQGTLVTVSSGGGGSGGGSEVQLVESGGGVVQPGGSLRLSCAASGRTFSSYRMGWFRQAPGKEREFVAALSGDGYSTYTANSVKGRFTISRDNSKNTVYLQMNSLRPEDTALYYCAAKLQYVSGWSYDYPYWGQGTLVTVSSGGGGSGGGSEVQLVESGGGVVQPGGSLRLSCAASGFTFRSFGMSWVRQAPGKGPEWVSSISGSGSDTLYADSVKGRFTISRDNSKNTLYLQMNSLRPEDTALYYCTIGGSLSRSSQGTLVTVSSGGGGSGGGSEVQLVESGGGVVQPGGSLRLSCAASGFTFNNYAMKWVRQAPGKGLEWVSSITTGGGSTDYADSVKGRFTISRDNSKNTLYLQMNSLRPEDTALYYCANVPFGYYSEHFSGLSFDYRGQGTLVTVSSA
# notes: Tetravalent, trispecific single-chain construct of four VHH (ISVD) domains: one against OX40L, two against IL-13, one against serum albumin; also called F0271000187; F27100187
# What was measured:
# [1] = molecular target: T1, cyno OX40L; test: Gyrolab in-solution affinity, 24 h incubation; 95% CI 101-156 pM
# Description: (§1) Under receptor-controlled measurements a serial dilution of OX40L (ranging from 1.3 μM-0.031 μM), IL-13 (ranging from 0.1 μM-0.25 fM), or serum albumin (ranging from 100 μM-3.2 μM) and a fixed amount of ISVD construct F027100187 (5 nM in case of OX40L, […] in case of IL-13 and 30 nM in case of HSA and cyno SA) were mixed to allow interaction and incubated for either 24 or 48 hours (in case of OX40L and IL-13) or 2 hours (in case of serum albumin) to reach equilibrium.
# (§2) Biotinylated human OX40L/IL-13/serum albumin was captured in the microstructures of a Gyrolab Bioaffy 1000 CD, which contains columns of beads and was used as a molecular probe to capture free F027100187 from the equilibrated solution. The mixture of OX40L/IL13/serum albumin and F027100187 (containing free OX40UIL-13/serum albumin, free F027100187 and OX40L/IL13/serum albumin—F027100187 complexes) was allowed to flow through the beads, and a small percentage of free F027100187 was captured, which is proportional to the free ISVD construct concentration. A fluorescently labeled anti-ISVD antibody, ABH0086-Alexa647, was then injected to label any captured F027100187 and after rinsing away excess of fluorescent probe, the change in fluorescence was determined. Fitting of the dilution series was done using Gyrolab Analysis software, where KD- and receptor-controlled curves were analyzed to determine the KD value.
# [2] = molecular target: T1, cyno OX40L; test: Gyrolab in-solution affinity, 24 h incubation; 95% CI 174-218 pM
# Description: as §1, §2
# [3] = molecular target: T3, human IL-13 (human, UniProt P35225 35-146, limits assumed); test: flow cytometry on CHO-KI cells expressing human OX40L loaded with 100 nM F027100187, dilution series of soluble human IL-13 in the presence of 30 uM HSA (bridging / simultaneous binding; x axis printed as 'Concentration human IL-13-Fc (M)', text says biotinylated IL-13)
# T3 construct: Recombinant soluble protein; also called hIL-13; soluble hIL-13
# Description: Using flow cytometry, it was determined whether ISVD construct F0271000187 can bind simultaneously to recombinant soluble hIL-13 and cell membrane bound hOX40L. […] Subsequently the mixture was incubated with a dilution series of biotinylated IL-13 starting from 500 nM down to […], and incubated for 30 min at 4° C., in the presence of 30 μM HSA. Cells were washed 3 times and subsequently incubated with PE-labelled […] for 30 min at 4° C., washed again. Samples were washed and resuspended in FACS Buffer (D-PBS with 10% FBS and 0.05% sodium azide supplemented with 5 nM TOPRO3). Cell suspensions were then analyzed on a iQuescreener.
# [4] = molecular target: T3, human IL-13; test: Gyrolab in-solution affinity, 48 h incubation; 95% CI 6.4-9.1 pM
# Description: as §1, §2
# [5] = molecular target: T1, cyno OX40L; test: Gyrolab in-solution affinity, 48 h incubation; 95% CI 225-326 pM
# Description: as §1, §2
# [6] = molecular target: T4, rhesus IL-13 (rhesus monkey, UniProt Q864V6 19-132, limits assumed); test: Gyrolab in-solution affinity, 48 h incubation; 95% CI 9.0-49.5 pM
# T4 construct: also called rhesus monkey IL-13
# Description: as §1, §2
# [7] = molecular target: T2, human OX40L; test: Gyrolab in-solution affinity, 48 h incubation; 95% CI 98-120 pM
# Description: as §1, §2
# [8] = molecular target: T2, human OX40L; test: cell-based or functional assay
# [9] = molecular target: T4, rhesus IL-13; test: Gyrolab in-solution affinity, 48 h incubation; 95% CI 6.3-49.5 pM
# Description: as §1, §2
# [10] = molecular target: T5, cyno serum albumin (cynomolgus monkey); test: Gyrolab in-solution affinity, 2 h incubation; 95% CI 9.0-12.3 nM
# T5 construct: also called cyno SA; cynomolgus monkey serum albumin
# Description: as §1, §2
# [11] = molecular target: T6, cyno IL-13 (cynomolgus monkey, UniProt Q0PW92 21-132); test: Gyrolab in-solution affinity, 48 h incubation; 95% CI 5.8-7.5 pM
# T6 construct: also called cynomolgus monkey IL-13
# Description: as §1, §2
# [12] = molecular target: T7, mouse serum albumin (mouse, UniProt P07724 25-608); test: Gyrolab in-solution affinity, 2 h incubation; 95% CI 101-117 nM
# T7 construct: also called mouse SA
# [13] = molecular target: T5, cyno serum albumin; test: Gyrolab in-solution affinity, 2 h incubation; 95% CI 9.7-10.7 nM
# Description: as §1, §2
# [14] = molecular target: T6, cyno IL-13; test: Gyrolab in-solution affinity, 48 h incubation; 95% CI 9.5-13.9 pM
# Description: as §1, §2
# [15] = molecular target: T3, human IL-13; test: Gyrolab in-solution affinity, 48 h incubation; 95% CI 3.8-11.5 pM
# Description: as §1, §2
# [16] = molecular target: T3, human IL-13; test: Gyrolab in-solution affinity, 48 h incubation; 95% CI 3.4-7.1 pM
# Description: as §1, §2
# [17] = molecular target: T8, human serum albumin (human, UniProt P02768 25-609); test: Gyrolab in-solution affinity, 2 h incubation; 95% CI 7.7-9.0 nM
# T8 construct: also called HSA; HAS
# Description: as §1, §2
# T3 sequence (P35225 35-146 limits assumed): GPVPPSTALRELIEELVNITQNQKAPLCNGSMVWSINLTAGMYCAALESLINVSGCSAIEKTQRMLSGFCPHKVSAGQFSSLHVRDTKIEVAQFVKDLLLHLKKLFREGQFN
# T6 sequence (Q0PW92 entry or part of it): as the sequence (P35225 35-146 limits assumed) above, with G1S, R10K, M42V, S67N, H83R, L100V counted along it
# T5 sequence (A2V9Z4 25-608): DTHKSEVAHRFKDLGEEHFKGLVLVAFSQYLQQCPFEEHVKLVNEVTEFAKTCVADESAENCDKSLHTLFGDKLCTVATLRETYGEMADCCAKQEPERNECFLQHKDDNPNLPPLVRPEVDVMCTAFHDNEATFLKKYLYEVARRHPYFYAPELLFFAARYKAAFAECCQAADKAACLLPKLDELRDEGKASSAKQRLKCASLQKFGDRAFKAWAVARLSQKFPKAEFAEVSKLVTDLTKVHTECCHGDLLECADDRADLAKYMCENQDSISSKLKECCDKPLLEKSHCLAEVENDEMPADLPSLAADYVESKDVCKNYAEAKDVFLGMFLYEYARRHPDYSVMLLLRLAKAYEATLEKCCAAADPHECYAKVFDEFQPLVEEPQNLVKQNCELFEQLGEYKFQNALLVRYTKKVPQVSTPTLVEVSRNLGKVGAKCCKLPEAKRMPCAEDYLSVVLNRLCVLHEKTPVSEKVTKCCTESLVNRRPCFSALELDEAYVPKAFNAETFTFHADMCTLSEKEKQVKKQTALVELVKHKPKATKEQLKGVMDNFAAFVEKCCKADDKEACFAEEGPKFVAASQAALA
# T4 sequence (Q864V6 19-132 limits assumed): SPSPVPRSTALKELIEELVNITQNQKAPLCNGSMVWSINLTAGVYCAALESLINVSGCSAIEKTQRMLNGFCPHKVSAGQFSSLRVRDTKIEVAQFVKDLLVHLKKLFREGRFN
# T8 sequence (P02768 25-609 limits assumed): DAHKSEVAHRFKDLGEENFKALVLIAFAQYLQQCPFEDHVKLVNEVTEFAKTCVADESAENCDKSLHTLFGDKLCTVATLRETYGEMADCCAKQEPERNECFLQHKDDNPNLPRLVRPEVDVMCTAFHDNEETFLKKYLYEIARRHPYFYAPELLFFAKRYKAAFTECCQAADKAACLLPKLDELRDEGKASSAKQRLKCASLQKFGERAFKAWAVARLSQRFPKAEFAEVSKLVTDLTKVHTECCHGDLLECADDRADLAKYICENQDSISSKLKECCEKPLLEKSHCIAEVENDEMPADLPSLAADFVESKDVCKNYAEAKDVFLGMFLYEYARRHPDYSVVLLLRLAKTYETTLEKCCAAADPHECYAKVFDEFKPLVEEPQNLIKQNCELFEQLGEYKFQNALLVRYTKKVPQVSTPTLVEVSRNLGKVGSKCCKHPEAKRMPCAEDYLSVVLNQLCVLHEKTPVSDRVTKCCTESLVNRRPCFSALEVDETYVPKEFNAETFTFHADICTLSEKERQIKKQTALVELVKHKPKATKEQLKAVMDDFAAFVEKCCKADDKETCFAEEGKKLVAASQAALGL
binder,measurement,setting,value
B1,Kd,[1],0.128 nM
same,Kd,[2],0.196 nM
same,EC50 (read off the curve),[3],~20 nM
same,Kd,[4],7.8 pM
same,Kd,[5],0.275 nM
same,Kd,[6],0.0293 nM
same,Kd,[7],0.109 nM
same,"IL-5 IC50 (nM), triculture assay",[8],1 nM
same,Kd,[9],0.0141 nM
same,Kd,[10],10.6 nM
same,Kd,[11],6.7 pM
same,Kd,[12],109 nM
same,Kd,[13],10.2 nM
same,Kd,[14],0.0117 nM
same,Kd,[15],7.6 pM
same,Kd,[16],5.3 pM
same,Kd,[17],8.3 nM
